These results are taken from the MegaScale stability set (Tsuboyama et al. 2023).

Sequences and labels used below:
B1: HHH_rd2_0155 (parent)
chain: PPDDERKKAEKAARSGNEEKAREILERLGYSEDEARELAKRLR

In the data set the parent is B1. Nature of the data set: folding stability dG (cDNA display proteolysis); higher = more stable. To be noted: PBS, room temperature.
As to PPDDERKKAEKAARSGNEEKAREILERLGYSEDEARELAKLLR [R41L], the “folding stability dG” value was 2.04 kcal/mol.

On to PPDDERKKAEKAARSGNEEKAREILERLGYSEDEARELAKSLR [R41S], for which the “folding stability dG” value amounted to 1.43 kcal/mol.

For PPDDERKKAEKAARSGNEEKAREILERLGYSEDEARELAKQLR [R41Q], the “folding stability dG” value turned out to be 1.78 kcal/mol.

As for PPDDERKKAEKAARSGNEEKAREILERLGYSEDEARELAKNLR [R41N], the “folding stability dG” value was 1.39 kcal/mol.

For the variant PPDDERKKAEKAARSGNEEKAREILERLGYSEDEARELAKRAR [L42A], the “folding stability dG” value came to 1.2 kcal/mol.

For the variant PPDDERKKAEKAARSGNEEKAREILERLGYSEDEARELAKRDR [L42D], the “folding stability dG” value was 0.37 kcal/mol.

In the case of PPDDERKKAEKAARSGNEEKAREILERLGYSEDEARELAKRMR [L42M], the “folding stability dG” value was found to be 2.39 kcal/mol.

On to PPDDERKKAEKAARSGNEEKAREILERLGYSEDEARELAKRSR [L42S], for which the “folding stability dG” value stood at 0.87 kcal/mol.

As to PPDDERKKAEKAARSGNEEKAREILERLGYSEDEARELAKRQR [L42Q], the “folding stability dG” value stood at 0.824 kcal/mol.

PPDDERKKAEKAARSGNEEKAREILERLGYSEDEARELAKRCR [L42C]: the “folding stability dG” value came to 1.56 kcal/mol.

On to PPDDERKKAEKAARSGNEEKAREILERLGYSEDEARELAKRIR [L42I], for which the “folding stability dG” value is 1.57 kcal/mol.

PPDDERKKAEKAARSGNEEKAREILERLGYSEDEARELAKRKR [L42K]: the “folding stability dG” value came out at 0.832 kcal/mol.

Turning to PPDDERKKAEKAARSGNEEKAREILERLGYSEDEARELAKRNR [L42N], the “folding stability dG” value is 0.469 kcal/mol.

On to PPDDERKKAEKAARSGNEEKAREILERLGYSEDEARELAKRRR [L42R], for which the “folding stability dG” value was determined as 0.996 kcal/mol.

For the variant PPDDERKKAEKAARSGNEEKAREILERLGYSEDEARELAKRYR [L42Y], the “folding stability dG” value came out at 2.46 kcal/mol.

As for PPDDERKKAEKAARSGNEEKAREILERLGYSEDEARELAKRER [L42E], the “folding stability dG” value turned out to be 0.286 kcal/mol.

On to PPDDERKKAEKAARSGNEEKAREILERLGYSEDEARELAKRHR [L42H], for which the “folding stability dG” value was 0.87 kcal/mol.

Take PPDDERKKAEKAARSGNEEKAREILERLGYSEDEARELAKRTR [L42T]: the “folding stability dG” value amounted to 0.69 kcal/mol.

PPDDERKKAEKAARSGNEEKAREILERLGYSEDEARELAKRPR [L42P]: the “folding stability dG” value stood at 0.434 kcal/mol.

On to PPDDERKKAEKAARSGNEEKAREILERLGYSEDEARELAKRFR [L42F], for which the “folding stability dG” value is 2.26 kcal/mol.

With PPDDERKKAEKAARSGNEEKAREILERLGYSEDEARELAKRWR [L42W], the “folding stability dG” value stood at 3.74 kcal/mol.

For PPDDERKKAEKAARSGNEEKAREILERLGYSEDEARELAKRVR [L42V], the “folding stability dG” value turned out to be 0.97 kcal/mol.

As for PPDDERKKAEKAARSGNEEKAREILERLGYSEDEARELAKRGR [L42G], the “folding stability dG” value is 0.615 kcal/mol.

With PPDDERKKAEKAARSGNEEKAREILERLGYSEDEARELAKRLQ [R43Q], the “folding stability dG” value came to 1.45 kcal/mol.

As for PPDDERKKAEKAARSGNEEKAREILERLGYSEDEARELAKRLN [R43N], the “folding stability dG” value worked out at 1.44 kcal/mol.

Regarding PPDDERKKAEKAARSGNEEKAREILERLGYSEDEARELAKRLP [R43P], the “folding stability dG” value worked out at 0.532 kcal/mol.

Regarding PPDDERKKAEKAARSGNEEKAREILERLGYSEDEARELAKRLI [R43I], the “folding stability dG” value was determined as 1.55 kcal/mol.

Turning to PPDDERKKAEKAARSGNEEKAREILERLGYSEDEARELAKRLS [R43S], the “folding stability dG” value was 1.85 kcal/mol.

Turning to PPDDERKKAEKAARSGNEEKAREILERLGYSEDEARELAKRLT [R43T], the “folding stability dG” value stood at 1.5 kcal/mol.

Take PPDDERKKAEKAARSGNEEKAREILERLGYSEDEARELAKRLY [R43Y]: the “folding stability dG” value was determined as 2.39 kcal/mol.

Take PPDDERKKAEKAARSGNEEKAREILERLGYSEDEARELAKRLF [R43F]: the “folding stability dG” value worked out at 2.48 kcal/mol.

Turning to PPDDERKKAEKAARSGNEEKAREILERLGYSEDEARELAKRLD [R43D], the “folding stability dG” value came out at 0.613 kcal/mol.

Turning to PPDDERKKAEKAARSGNEEKAREILERLGYSEDEARELAKRLG [R43G], the “folding stability dG” value is 1.48 kcal/mol.

In the case of PPDDERKKAEKAARSGNEEKAREILERLGYSEDEARELAKRLK [R43K], the “folding stability dG” value came to 1.79 kcal/mol.

Consider PPDDERKKAEKAARSGNEEKAREILERLGYSEDEARELAKRLE [R43E], for which the “folding stability dG” value stood at 0.924 kcal/mol.

With PPDDERKKAEKAARSGNEEKAREILERLGYSEDEARELAKRLV [R43V], the “folding stability dG” value is 1.77 kcal/mol.

Take PPDDERKKAEKAARSGNEEKAREILERLGYSEDEARELAKRLW [R43W]: the “folding stability dG” value came out at 2.31 kcal/mol.

In the case of PPDDERKKAEKAARSGNEEKAREILERLGYSEDEARELAKRLM [R43M], the “folding stability dG” value was 2.09 kcal/mol.

Consider PPDDERKKAEKAARSGNEEKAREILERLGYSEDEARELAKRLH [R43H], for which the “folding stability dG” value is 1.91 kcal/mol.

Take PPDDERKKAEKAARSGNEEKAREILERLGYSEDEARELAKRLA [R43A]: the “folding stability dG” value was determined as 2.29 kcal/mol.

For PPDDERKKAEKAARSGNEEKAREILERLGYSEDEARELAKRLL [R43L], the “folding stability dG” value worked out at 1.87 kcal/mol.

PPDDERKKAEKAARSGNEEKAREILERLGYSEDEARELAHRLR [K40H]: the “folding stability dG” value is 2.39 kcal/mol.

On to PPDDERKKAEKAARSGNEEKAREILERLGYSEDEARELADRLR [K40D], for which the “folding stability dG” value stood at 1.31 kcal/mol.

Consider PPDDERKKAEKAARSGNEEKAREILERLGYSEDEARELARRLR [K40R], for which the “folding stability dG” value stood at 2.52 kcal/mol.

With PPDDERKKAEKAARSGNEEKAREILERLGYSEDEARELATRLR [K40T], the “folding stability dG” value worked out at 1.63 kcal/mol.

As to PPDDERKKAEKAARSGNEEKAREILERLGYSEDEARELAFRLR [K40F], the “folding stability dG” value was 1.8 kcal/mol.

Regarding PPDDERKKAEKAARSGNEEKAREILERLGYSEDEARELAPRLR [K40P], the “folding stability dG” value amounted to 0.1 kcal/mol.

In the case of PPDDERKKAEKAARSGNEEKAREILERLGYSEDEARELAMRLR [K40M], the “folding stability dG” value was found to be 2.22 kcal/mol.

As to PPDDERKKAEKAARSGNEEKAREILERLGYSEDEARELAWRLR [K40W], the “folding stability dG” value amounted to 2.08 kcal/mol.

On to PPDDERKKAEKAARSGNEEKAREILERLGYSEDEARELAYRLR [K40Y], for which the “folding stability dG” value worked out at 1.98 kcal/mol.

On to PPDDERKKAEKAARSGNEEKAREILERLGYSEDEARELAARLR [K40A], for which the “folding stability dG” value came out at 2.06 kcal/mol.

As to PPDDERKKAEKAARSGNEEKAREILERLGYSEDEARELAGRLR [K40G], the “folding stability dG” value came to 1.44 kcal/mol.

Turning to PPDDERKKAEKAARSGNEEKAREILERLGYSEDEARELAERLR [K40E], the “folding stability dG” value turned out to be 1.76 kcal/mol.

On to PPDDERKKAEKAARSGNEEKAREILERLGYSEDEARELALRLR [K40L], for which the “folding stability dG” value stood at 1.81 kcal/mol.

Regarding PPDDERKKAEKAARSGNEEKAREILERLGYSEDEARELAVRLR [K40V], the “folding stability dG” value is 1.43 kcal/mol.

As to PPDDERKKAEKAARSGNEEKAREILERLGYSEDEARELAIRLR [K40I], the “folding stability dG” value was 1.61 kcal/mol.

For PPDDERKKAEKAARSGNEEKAREILERLGYSEDEARELAQRLR [K40Q], the “folding stability dG” value came out at 1.84 kcal/mol.

Take PPDDERKKAEKAARSGNEEKAREILERLGYSEDEARELASRLR [K40S]: the “folding stability dG” value was 1.97 kcal/mol.

As to PPDDERKKAEKAARSGNEEKAREILERLGYSEDEARELANRLR [K40N], the “folding stability dG” value is 1.79 kcal/mol.
